Source: patent US20220340657A1 (L AND L BIO CO LTD NINGBO CHINA, published 2022)
Where two headings read alike, the source gives them in different places.

Tests used:
human LAG-3-his [1] = target: T1, human LAG-3-his (human, UniProt P18627 23-422); assay: ELISA on hLAG-3
T1 construct: range 23-422; also called hLAG-3-his; hLAG-3
T1 sequence: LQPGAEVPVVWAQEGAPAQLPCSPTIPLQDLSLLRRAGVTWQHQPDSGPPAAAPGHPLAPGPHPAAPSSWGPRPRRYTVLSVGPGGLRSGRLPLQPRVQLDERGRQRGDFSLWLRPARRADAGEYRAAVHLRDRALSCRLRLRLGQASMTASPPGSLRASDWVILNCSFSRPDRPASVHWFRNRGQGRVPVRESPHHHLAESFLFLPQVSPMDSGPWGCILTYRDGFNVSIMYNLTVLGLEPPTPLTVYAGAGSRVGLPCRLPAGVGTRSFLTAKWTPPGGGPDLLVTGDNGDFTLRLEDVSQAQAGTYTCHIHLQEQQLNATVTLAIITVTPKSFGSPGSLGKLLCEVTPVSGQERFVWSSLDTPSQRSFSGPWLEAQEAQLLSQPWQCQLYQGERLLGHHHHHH
Experimental: (§1) After discarding the liquid, a blocking solution of 5% skimmed milk (Bright skimmed milk powder) diluted with PBS was added at 230 μl per well, followed by incubating at 37° C. for 3 hours or 4° C. overnight (16-18 hours) for blocking. Subsequently, the blocking solution was discarded, and the micropiate was washed 5 times with PBST buffer (pH 7.4 PBS containing 0.05% tweeen-20). Then 50 μl/well of the supernatant (containing the antibody to be tested) or a starting concentration of 10 μg/ml of the antibody to be tested, which was diluted 5 times in gradient, was added, followed by incubating the mixture for 1 hour at 37° C. […] After washing the microplate 5 times with PBST, 50 μl/well TIMB chromogenic substrate (KPL, Cat. No.: 52-00-03) was added, and then incubated for […] at room temperature. Finally, 50 μl/well of 1 M H₂SO₄ was added to stop the reaction. The absorbance value at 450 nm was read by […] GO microplate reader (ThermoFisher, Cat. No.: 51119200). The clones with high affinity were selected according to the OD value or the EC₅₀ value was calculated (for antibodies with known concentrations).

human LAG-3-his [2] = target: T1, human LAG-3-his; assay: ELISA on hLAG-3; remark: listed apart in the source
Experimental: as §1

bio-LAG3-mFc [3] = target: T2, bio-LAG3-mFc (human, UniProt P18627 23-450, biotin-labelled); assay: blocking ELISA, LAG-3 on Daudi cells
T2 construct: also called hLAG-3
T2 sequence (looked up): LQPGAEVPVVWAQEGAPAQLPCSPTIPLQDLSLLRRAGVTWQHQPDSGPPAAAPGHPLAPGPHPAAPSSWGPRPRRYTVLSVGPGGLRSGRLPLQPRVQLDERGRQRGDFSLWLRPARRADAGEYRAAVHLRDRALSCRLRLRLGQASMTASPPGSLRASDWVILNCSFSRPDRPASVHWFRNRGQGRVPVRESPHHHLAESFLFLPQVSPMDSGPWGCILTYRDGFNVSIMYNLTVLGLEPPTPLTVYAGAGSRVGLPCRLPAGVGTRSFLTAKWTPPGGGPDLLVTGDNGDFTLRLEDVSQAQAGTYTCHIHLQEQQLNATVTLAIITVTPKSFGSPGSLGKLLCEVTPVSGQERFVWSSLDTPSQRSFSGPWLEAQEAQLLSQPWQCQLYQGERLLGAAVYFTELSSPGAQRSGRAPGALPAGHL

bio-LAG3-mFc [4] = target: T2, bio-LAG3-mFc; assay: blocking ELISA, LAG-3 on Daudi cells; remark: listed apart in the source
human LAG-3-his [5] = target: T1, human LAG-3-his; assay: ELISA on coated human LAG-3-his, anti-human HRP, OD450 (Example 3) [panel a]
Experimental: as §1

bio-LAG3-mFc [6] = target: T2, bio-LAG3-mFc; assay: blocking ELISA on fixed Daudi cells: antibody titrated against bio-LAG3-mFc binding to Daudi cells (MHC II), streptavidin-HRP, OD450 (Example 4) [panel b]

B1: chimeric antibody mab23c (antibody, human IgG4 S228P, kappa, V domains shown)
VH: QVQLQQSGAELVRPGASVTLSCKASGYTFTDYEMHWVKQTPVHGLEWIGGIDPETEGIAYNQKFRGKAILTADKSSITAYMELRSLTSEDSAVYYCTNSNYYGGREAWFAYWGQGTLVTVSG
VL: DIQMIQSPSSLSASLGERVSLTCRASQDIGSSLNWLQQEPDGTIKRLIYATSSLDSGVPKRFSGSRSGSDYSLTISSLESEDFVDYYCLQYVTSPLTFGAGTKLELKR
notes: hIgG4
B1 showed an EC50 (human LAG-3-his [1]) of 0.41 nM, an EC50 (human LAG-3-his [2]) of 0.166 nM and an IC50 (bio-LAG3-mFc [3]) of 2.3 nM. For the same binder, the “fold better IC50 than Ref” value (bio-LAG3-mFc [3]) was roughly 4 fold, the IC50 (bio-LAG3-mFc [4]) was 1.55 nM and the “EC50 (read off the curve)” value (human LAG-3-his [5]) was roughly 0.4 nM. For the same binder, the “IC50 (read off the curve)” value (bio-LAG3-mFc [6]) was roughly 2 nM.
